Results: patent US5661005, “β3 integrin subunit specific polypeptides, cDNAS which encode these polypeptides and methods of producing these polypeptides” (Trustees of the University of Pennsylvania, dated 1997)
Values belong to the binder of their own block, whether it stands above or below them.

Assays:
[1] = target: β3 cytoplasmic tail with mutation of a serine to a proline at amino acid residue 752 (Saccharomyces cerevisiae (strain ATCC 204508 / S288c) (Baker's yeast); Homo sapiens (Human)) (UniProt P04386); test: yeast two-hybrid, quantitative β-galactosidase assay of yeast lysates
[2] = target: T1, integrin β1 cytoplasmic domain (Homo sapiens (Human), UniProt P05556); test: yeast two-hybrid, quantitative β-galactosidase assay
T1 chain: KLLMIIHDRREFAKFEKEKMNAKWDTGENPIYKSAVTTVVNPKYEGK

[3] = target: T2, integrin β2 cytoplasmic domain (Homo sapiens (Human), UniProt P05107); test: as above
T2 chain: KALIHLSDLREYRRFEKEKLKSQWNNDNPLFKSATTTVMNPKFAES

- reduction in the interaction (against the unmutated β3 cytoplasmic tail) [1]: 70%
- binding result [2]: no binding
- binding result [3]: no binding
B1: polypeptide encoded by clone 28 (SEQ ID NO: 2), β3 integrin subunit specific polypeptide (other)
chain: GHEGPKITRKKSVITYSPTTGTCQMSLFASPTSSEEQKHRNGLSNEKRKKLNHPSLTESKESTTKDNDEFMMLLSKVEKLSEEIMEIMQNLSSIQ

- binding result [2]: no binding
- binding result [3]: no binding
B2: β3 integrin subunit specific polypeptide comprising about 111 amino acids (SEQ ID NO: 4) (other)
chain: MPVKRSLKLDGLLEENSFDPSKITRKKSVITYSPTTGTCQMSLFASPTSSEEQKHRNGLSNEKRKKLNHPSLTESKESTTKDNDEFMMLLSKVEKLSEEIMEIMQNLSSIQ
